Data as given in US20240207418A1 (PROFOUNDBIO US, published 2024).
Where a chain is given by its changes, count along the chain named.

B1: anti-huFOLR-1 conjugate F131-LD038 (antibody, V domains shown)
VH: EVQLLESGGGVVQPGRSLRLSCAASGFTFSSYGMHWVRQAPGKGLEWVAVISYDGSNKYYADSVKGRFTISRANSKNTLYLQMNSLRAEDTAVYYCARPRAYYGAYGSSFDYWGQGTQVTVSS
VL: EIVMTQSPSSVSASVGDRVAITCRASQGISSWLAWYQQKPGKAPKLLIYAASSLQSGVPSRFSGSGSGTDFTLTISSLQPEDFATYYCQQSYSTPLTFGGGTKVDIK
modifications: drug-linker LD038 coupled to cysteine thiols after TCEP reduction; positions not given; drug-linker LD038 (PB038; PEG unit, Val-Cit-PAB cleavable linker, exatecan) coupled by maleimide to cysteine thiols after TCEP reduction; DAR 7.6 by LC-MS; positions not given
notes: also called F131-038; PA038 conjugate of F131
B2: anti-FOLR1 antibody F131 (antibody, V domains shown)
VH: B1 VH
VL: B1 VL
notes: Tested as full-length IgG with an IgG1 Fc (HEK293 supernatant and purified; later ExpiCHO-S); also called F131 mAb; F131 Ab
B3: anti-FOLR1 antibody F138 (antibody, V domains shown)
VH: B1 VH with R72T, A73H
VL: B1 VL
notes: Tested as full-length IgG with an IgG1 Fc, expressed in HEK293 (transfection supernatant); also called clone F138

Experiments:
[1] = biological target: T1, rat FOLR1 extracellular domain linked to His tag (rat, UniProt G3V8M6 25-232); experiment: BLI, Ag 125 nM; * below range of quantification
T1 construct: BLI analyte; also called Rat-Ag

[2] = biological target: T2, mouse FOLR1 extracellular domain linked to His tag (mouse, UniProt P35846 25-232, limits assumed); experiment: BLI, Ag 125 nM; * below range of quantification
T2 construct: extracellular domain; BLI analyte; also called Mouse-Ag; not shown: His tag

[3] = biological target: T1, rat FOLR1 extracellular domain linked …; experiment: BLI, Ag 15.6 nM; * below range of quantification
[4] = biological target: T2, mouse FOLR1 extracellular domain linked …; experiment: BLI, Ag 15.6 nM; * below range of quantification
[5] = biological target: T1, rat FOLR1 extracellular domain linked …; experiment: BLI, Ag 31.3 nM; * below range of quantification
[6] = biological target: T2, mouse FOLR1 extracellular domain linked …; experiment: BLI, Ag 31.3 nM; * below range of quantification
[7] = biological target: T1, rat FOLR1 extracellular domain linked …; experiment: BLI, Ag 62.5 nM; * below range of quantification
[8] = biological target: T2, mouse FOLR1 extracellular domain linked …; experiment: BLI, Ag 62.5 nM; * below range of quantification
[9] = biological target: T1, rat FOLR1 extracellular domain linked …; experiment: BLI, Ag 7.82 nM; * below range of quantification
[10] = biological target: T2, mouse FOLR1 extracellular domain linked …; experiment: BLI, Ag 7.82 nM; * below range of quantification
[11] = biological target: T3, human FOLR3 extracellular domain linked to His tag (human, UniProt P41439 23-245, limits assumed); experiment: BLI, global 1:1 fit; all responses below quantification range
T3 construct: extracellular domain; BLI analyte; also called Hu-FRg; not shown: His tag

[12] = biological target: T1, rat FOLR1 extracellular domain linked …; experiment: as above
[13] = biological target: T4, human FOLR1 protein, His tag (ACRO-FO1-H52H1) (human, UniProt P15328 25-233); experiment: ELISA, supernatant diluted 25x
T4 construct: Bought recombinant protein used for panning and for coating ELISA plates; not shown: His tag
T4 sequence (P15328 25-233 limits assumed): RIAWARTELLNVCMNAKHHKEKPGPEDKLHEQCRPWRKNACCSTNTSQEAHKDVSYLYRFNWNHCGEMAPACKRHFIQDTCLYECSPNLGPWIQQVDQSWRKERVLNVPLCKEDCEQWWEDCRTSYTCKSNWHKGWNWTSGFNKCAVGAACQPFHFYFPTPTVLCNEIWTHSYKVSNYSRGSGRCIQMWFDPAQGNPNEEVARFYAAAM

T2 sequence (P35846 25-232 limits assumed): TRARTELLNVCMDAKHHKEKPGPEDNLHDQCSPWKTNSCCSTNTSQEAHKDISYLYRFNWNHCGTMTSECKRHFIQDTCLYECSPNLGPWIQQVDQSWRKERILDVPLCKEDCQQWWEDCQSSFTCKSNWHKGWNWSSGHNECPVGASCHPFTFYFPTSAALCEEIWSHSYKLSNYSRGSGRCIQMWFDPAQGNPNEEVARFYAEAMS
T1 sequence (G3V8M6 entry or part of it limits assumed): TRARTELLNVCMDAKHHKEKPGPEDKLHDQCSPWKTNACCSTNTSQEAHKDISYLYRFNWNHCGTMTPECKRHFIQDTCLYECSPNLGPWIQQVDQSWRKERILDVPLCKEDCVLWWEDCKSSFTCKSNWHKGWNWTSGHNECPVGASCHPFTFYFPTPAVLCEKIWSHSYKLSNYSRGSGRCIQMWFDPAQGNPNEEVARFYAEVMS
T3 sequence (P41439 23-245 limits assumed): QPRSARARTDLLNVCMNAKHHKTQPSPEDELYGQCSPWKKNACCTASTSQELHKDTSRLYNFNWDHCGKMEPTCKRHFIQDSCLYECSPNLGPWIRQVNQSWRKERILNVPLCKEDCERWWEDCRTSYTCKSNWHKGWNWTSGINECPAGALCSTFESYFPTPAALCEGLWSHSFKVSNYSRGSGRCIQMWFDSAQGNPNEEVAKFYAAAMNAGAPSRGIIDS

Row | Binder | Response [1] | Response [2] | Response [3] | Response [4] | Response [5] | Response [6] | Response [7] | Response [8] | Response [9] | Response [10] | Kd [11] | Kd [12] | koff [12] | kon [12] | OD450 [13]
1 | B1 | 0.0007 | 0.0008 | -0.00212 | -0.00324 | -0.00454 | -0.00132 | -0.00393 | -0.000242 | -0.00438 | -0.00483 | 0.0328 nM | 84.8 nM | 0.224 s⁻¹ | 2.64e+06 M⁻¹ s⁻¹ | 
2 | B2 | -0.00477 | -0.000579 | -0.00395 | -0.0051 | -0.00532 | -0.00251 | -0.00606 | -0.00178 | -0.00563 | 0.0027 |  |  | 1.03 s⁻¹ | 5490 M⁻¹ s⁻¹ | 
3 | B3 |  |  |  |  |  |  |  |  |  |  |  |  |  |  | 0.827 OD450
